The target of this experiment is SARS-CoV-2 RBD WT for SPR binding assays (SARS-CoV-2) (UniProt P0DTC2).

This note sets out measurements from article PMC8043444.

For the substance S309 IgG1 (LS) (antibody), the neutralisation of authentic SARS-CoV-2-Nluc on Vero E6 cells (IF/luc), IC50 came out at 78.9 and the neutralisation of authentic SARS-CoV-2-Nluc on Vero E6 cells (IF/luc), IC90 came to 300.
